# B1: Protein VAC14 homolog (Homo sapiens), Q08AM6 (parent)
# chain: MNPEKDFAPLTPNIVRALNDKLYEKRKVAALEIEKLVREFVAQNNTVQIKHVIQTLSQEFALSQHPHSRKGGLIGLAACSIALGKDSGLYLKELIEPVLTCFNDADSRLRYYACEALYNIVKVARGAVLPHFNVLFDGLSKLAADPDPNVKSGSELLDRLLKDIVTESNKFDLVSFIPLLRERIYSNNQYARQFIISWILVLESVPDINLLDYLPEILDGLFQILGDNGKEIRKMCEVVLGEFLKEIKKNPSSVKFAEMANILVIHCQTTDDLIQLTAMCWMREFIQLAGRVMLPYSSGILTAVLPCLAYDDRKKSIKEVANVCNQSLMKLVTPEDDELDELRPGQRQAEPTPDDALPKQEGTASGGPDGSCDSSFSSGISVFTAASTERAPVTLHLDGIVQVLNCHLSDTAIGMMTRIAVLKWLYHLYIKTPRKMFRHTDSLFPILLQTLSDESDEVILKDLEVLAEIASSPAGQTDDPGPLDGPDLQASHSELQVPTPGRAGLLNTSGTKGLECSPSTPTMNSYFYKFMINLLKRFSSERKLLEVRGPFIIRQLCLLLNAENIFHSMADILLREEDLKFASTMVHALNTILLTSTELFQLRNQLKDLKTLESQNLFCCLYRSWCHNPVTTVSLCFLTQNYRHAYDLIQKFGDLEVTVDFLAEVDKLVQLIECPIFTYLRLQLLDVKNNPYLIKALYGLLMLLPQSSAFQLLSHRLQCVPNPELLQTEDSLKAAPKSQKADSPSIDYAELLQHFEKVQNKHLEVRHQRSGRGDHLDRRVVL
# partner: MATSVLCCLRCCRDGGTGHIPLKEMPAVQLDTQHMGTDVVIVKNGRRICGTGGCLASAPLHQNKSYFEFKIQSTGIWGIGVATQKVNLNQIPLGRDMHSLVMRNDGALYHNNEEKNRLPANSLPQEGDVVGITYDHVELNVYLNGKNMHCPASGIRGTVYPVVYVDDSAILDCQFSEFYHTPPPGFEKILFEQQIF
# B2: Coiled-coil domain-containing protein 120 (Homo sapiens), Q96HB5-4 (parent)
# chain: MRREPRYQGQVGPDIHTDSERTLSSHQPRPLDSTKMEVKGQLISSPTFNAPAALFGEAAPQVKSERLRGLLDRQRTLQEALSLKLQELRKVCLQEAELTGQLPPECPLEPGERPQLVRRRPPTARAYPPPHPNQAHHSLCPAEELALEALEREVSVQQQIAAAARRLALAPDLSTEQRRRRRQVQADALRRLHELEEQLRDVRARLGLPVLPLPQPLPLSTGSVITTQGVCLGMRLAQLSQEDVVLHSESSSLSESGASHDNEEPHGCFSLAERPSPPKAWDQLRAVSGGSPERRTPWKPPPSDLYGDLKSRRNSVASPTSPTRSLPRSASSFEGRSVPATPVLTRGAGPQLCKPEGLHSRQWSGSQDSQMGFPRADPASDRASLFVARTRRSNSSEALLVDRAAGGGAGSPPAPLAPSASGPPVCKSSEVLYERPQPTPAFSSRTAGPPDPPRAARPSSAAPASRGAPRLPPVCGDFLLDYSLDRGLPRSGGGTGWGELPPAAEVPGPLSRRDGLLTMLPGPPPVYAADSNSPLLRTKDPHTRATRTKPCGLPPEAAEGPEVHPNPLLWMPPPTRIPSAGERSGHKNLALEGLRDWYIRNSGLAAGPQRRPVLPSVGPPHPPFLHARCYEVGQALYGAPSQAPLPHSRSFTAPPVSGRYYADFLYPPELSARLSDLTLEGEQSSSSDTQTPGTLV
# partner: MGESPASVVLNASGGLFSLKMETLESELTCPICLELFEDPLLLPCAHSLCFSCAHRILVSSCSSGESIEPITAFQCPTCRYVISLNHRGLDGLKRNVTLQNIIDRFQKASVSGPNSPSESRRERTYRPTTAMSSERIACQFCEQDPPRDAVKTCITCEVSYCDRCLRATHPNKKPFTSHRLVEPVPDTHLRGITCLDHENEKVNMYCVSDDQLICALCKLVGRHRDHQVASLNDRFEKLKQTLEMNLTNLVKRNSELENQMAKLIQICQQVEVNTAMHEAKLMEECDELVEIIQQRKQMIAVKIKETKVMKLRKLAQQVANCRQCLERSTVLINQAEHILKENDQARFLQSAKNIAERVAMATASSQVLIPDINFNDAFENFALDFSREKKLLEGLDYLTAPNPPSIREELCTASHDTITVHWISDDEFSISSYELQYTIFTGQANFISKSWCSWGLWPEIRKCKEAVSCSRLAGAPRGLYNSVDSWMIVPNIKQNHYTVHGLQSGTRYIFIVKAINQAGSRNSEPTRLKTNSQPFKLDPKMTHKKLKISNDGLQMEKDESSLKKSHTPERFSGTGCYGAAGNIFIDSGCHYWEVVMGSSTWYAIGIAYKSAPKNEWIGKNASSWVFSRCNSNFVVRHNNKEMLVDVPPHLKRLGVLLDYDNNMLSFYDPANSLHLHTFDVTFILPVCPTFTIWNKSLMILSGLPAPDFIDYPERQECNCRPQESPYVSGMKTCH
# B3: Genetic suppressor element 1 (Homo sapiens), Q14687 (parent)
# chain: MKGMSHEPKSPSLGMLSTATRTTATVNPLTPSPLNGALVPSGSPATSSALSAQAAPSSSFAAALRKLAKQAEEPRGSSLSSESSPVSSPATNHSSPASTPKRVPMGPIIVPPGGHSVPSTPPVVTIAPTKTVNGVWRSESRQDAGSRSSSGGRERLIVEPPLPQEKAGGPAIPSHLLSTPYPFGLSPSSVVQDSRFPPLNLQRPVHHVVPPSTVTEDYLRSFRPYHTTDDLRMSSLPPLGLDPATAAAYYHPSYLAPHPFPHPAFRMDDSYCLSALRSPFYPIPTPGSLPPLHPSAMHLHLSGVRYPPELSHSSLAALHSERMSGLSAERLQMDEELRREREREREREREREADREREKEREREREKEREQEKEREREKERERELERQREQRAREKELLAAKALEPSFLPVAELHGLRGHATEERGKPSEQLTPTRAEKLKDAGLQAPKPVQHPLHPVPTPHHTVPSLISNHGIFSLPSSSAATALLIQRTNEEEKWLARQRRLRQEKEDRQSQVSEFRQQVLEQHLDMGRPPVPAEAEHRPESTTRPGPNRHEPGGRDPPQHFGGPPPLISPKPQLHAAPTALWNPVSLMDNTLETRRAESHSLHSHPAAFEPSRQAAVPLVKVERVFCPEKAEEGPRKREPAPLDKYQPPPPPPREGGSLEHQPFLPGPGPFLAELEKSTQTILGQQRASLPQAATFGELSGPLKPGSPYRPPVPRAPDPAYIYDEFLQQRRRLVSKLDLEERRRREAQEKGYYYDLDDSYDESDEEEVRAHLRCVAEQPPLKLDTSSEKLEFLQLFGLTTQQQKEELVAQKRRKRRRMLRERSPSPPTIQSKRQTPSPRLALSTRYSPDEMNNSPNFEEKKKFLTIFNLTHISAEKRKDKERLVEMLRAMKQKALSAAVADSLTNSPRDSPAVSLSEPATQQASLDVEKPVGVAASLSDIPKAAEPGKLEQVRPQELSRVQELAPASGEKARLSEAPGGKKSLSMLHYIRGAAPKDIPVPLSHSTNGKSKPWEPFVAEEFAHQFHESVLQSTQKALQKHKGSVAVLSAEQNHKVDTSVHYNIPELQSSSRAPPPQHNGQQEPPTARKGPPTQELDRDSEEEEEEDDEDGEDEEEVPKRKWQGIEAVFEAYQEHIEEQNLERQVLQTQCRRLEARHYSLSLTAEQLSHSVAELRSQKQKMVSERERLQAELDHLRKCLALPAMHWPRGYLKGYPR
# partner: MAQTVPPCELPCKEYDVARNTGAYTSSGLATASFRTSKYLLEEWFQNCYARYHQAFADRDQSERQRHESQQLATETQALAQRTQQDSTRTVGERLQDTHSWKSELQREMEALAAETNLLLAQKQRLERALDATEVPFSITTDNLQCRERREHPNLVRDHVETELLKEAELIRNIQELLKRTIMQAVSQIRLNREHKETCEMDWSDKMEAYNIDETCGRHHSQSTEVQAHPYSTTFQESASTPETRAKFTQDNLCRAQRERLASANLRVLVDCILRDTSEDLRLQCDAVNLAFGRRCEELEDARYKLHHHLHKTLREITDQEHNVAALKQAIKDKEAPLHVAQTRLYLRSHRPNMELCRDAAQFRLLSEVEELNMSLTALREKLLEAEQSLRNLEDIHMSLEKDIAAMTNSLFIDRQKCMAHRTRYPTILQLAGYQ
# B4: Ribosome assembly protein METTL17, mitochondrial (Homo sapiens), Q9H7H0 (parent)
# chain: MAAALKCLLTLGRWCPGLGVAPQARALAALVPGVTQVDNKSGFLQKRPHRQHPGILKLPHVRLPQALANGAQLLLLGSAGPTMENQVQTLTSYLWSRHLPVEPEELQRRARHLEKKFLENPDLSQTEEKLRGAVLHALRKTTYHWQELSYTEGLSLVYMAARLDGGFAAVSRAFHEIRARNPAFQPQTLMDFGSGTGSVTWAAHSIWGQSLREYMCVDRSAAMLVLAEKLLKGGSESGEPYIPGVFFRQFLPVSPKVQFDVVVSAFSLSELPSKADRTEVVQTLWRKTGHFLVLVENGTKAGHSLLMDARDLVLKGKEKSPLDPRPGFVFAPCPHELPCPQLTNLACSFSQAYHPIPFSWNKKPKEEKFSMVILARGSPEEAHRWPRITQPVLKRPRHVHCHLCCPDGHMQHAVLTARRHGRDLYRCARVSSWGDLLPVLTPSAFPPSTAQDPSES
# partner: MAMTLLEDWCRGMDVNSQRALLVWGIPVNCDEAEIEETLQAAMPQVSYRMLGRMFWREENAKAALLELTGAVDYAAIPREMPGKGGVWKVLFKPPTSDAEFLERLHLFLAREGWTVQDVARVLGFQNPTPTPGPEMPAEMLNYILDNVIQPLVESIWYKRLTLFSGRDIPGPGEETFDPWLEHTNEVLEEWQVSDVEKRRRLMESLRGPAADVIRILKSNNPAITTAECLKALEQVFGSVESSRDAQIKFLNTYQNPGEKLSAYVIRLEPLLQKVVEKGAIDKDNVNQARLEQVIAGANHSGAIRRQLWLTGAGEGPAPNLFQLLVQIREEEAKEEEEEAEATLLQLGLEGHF
# Variants of: B1
# Details: with spry7_human SPRYD7, Q5W111
row,effect of a mutation on the interaction,Variant
1,with no effect,A127S

# Variants of: B2
# Details: with trim1_human MID2, Q9UJV3
row,effect of a mutation on the interaction,Variant
1,with no effect,R346W

# Variants of: B3
# Details: with tekt4_human TEKT4, Q8WW24
row,effect of a mutation on the interaction,Variant
1,with no effect,E368K

# Variants of: B3
# Details: with tekt4_human TEKT4, Q8WW24
# Remark: another data set of the same source
row,effect of a mutation on the interaction,Variant
1,with no effect,R503Q

# Variants of: B4
# Details: with pnma1_human PNMA1, Q8ND90
row,effect of a mutation on the interaction,Variant
1,with no effect,R212H
